In the PETadex activity labels (doi:10.1016/j.enzmictec.2020.109715):

Key:
pNP-C8 [1] = test: Proxy for plastic degradation [p-nitrophenol (pNP) release] (% relative activity)
pNP-C8 [2] = test: Proxy for plastic degradation [Relative activity]
PET = test: Proxy for plastic degradation [Released monomer concentration (HPLC/LC-MS) (MHET+TPA+BHET)]; settings: pH 8
BHET = settings: pH 7; 40 °C; part of the chain shown
p-NP-C2 = settings: pH 7; 40 °C; part of the chain shown
p-NP-C4 = settings: pH 7; 40 °C; part of the chain shown

B1: unnamed (protein)
chain: MDGVLWRVRTAALMAALLALAAWALVWASPSVEAQSNPYQRGPNPTRSALTADGPFSVATYTVSRLSVSGFGGGVIYYPTGTSLTFGGIAMSPGYTADASSLAWLGRRLASHGFVVLVINTNSRFDYPDSRASQLSAALNYLRTSSPSAVRARLDANRLAVAGHSMGGGGTLRIAEQNPSLKAAVPLTPWHTDKTFNTSVPVLIVGAEADTVAPVSQHAIPFYQNLPSTTPKVYVELDNASHFAPNSNNAAISVYTISWMKLWVDNDTRYRQFLCNVNDPALSDFRTNNRHCQ
**Q.** B1 was tested. Which “Proxy for plastic degradation” value (pNP-C8 [1]; pH 3) did it give?
**A.** 0

**Q.** What about the “Proxy for plastic degradation” value (pNP-C8 [1]; pH 4) of the same protein?
**A.** 17

**Q.** What about the “Proxy for plastic degradation” value (pNP-C8 [1]; pH 5) of the same protein?
**A.** 69

**Q.** And the “Proxy for plastic degradation” value (pNP-C8 [1]; pH 6)?
**A.** 100

**Q.** And the “Proxy for plastic degradation” value (pNP-C8 [1]; pH 7)?
**A.** 100

**Q.** And the “Proxy for plastic degradation” value (pNP-C8 [1]; pH 8)?
**A.** 89

**Q.** And the “Proxy for plastic degradation” value (pNP-C8 [1]; pH 8, 5 °C)?
**A.** 100

**Q.** And the “Proxy for plastic degradation” value (pNP-C8 [1]; pH 8, 30 °C)?
**A.** 32

**Q.** And the “Proxy for plastic degradation” value (pNP-C8 [1]; pH 8, 35 °C)?
**A.** 47

**Q.** And the “Proxy for plastic degradation” value (pNP-C8 [1]; pH 9)?
**A.** 54

**Q.** And the “Proxy for plastic degradation” value (pNP-C8 [1]; pH 10)?
**A.** 0

B2: unnamed (protein)
chain: MNFPRASRLMQAAVLGGLMAVSAAATAQTNPYARGPNPTAASLEASAGPFTVRSFTVSRPSGYGAGTVYYPTNAGGTVGAIAIVPGYTARQSSIKWWGPRLASHGFVVITIDTNSTLDQPSSRSSQQMAALRQVASLNGTSSSPIYGKVDTARMGVMGWSMGGGGSLISAANNPSLKAAAPQAPWDSSTNFSSVTVPTLIFACENDSIAPVNSSALPIYDSMSRNAKQFLEINGGSHSCANSGNSNQALIGKKGVAWMKRFMDNDTRYSTFACENPNSTRVSDFRTANCS
**Q.** How did the “Proxy for plastic degradation” value (pNP-C8 [1]; pH 3, part of the chain shown) turn out when B2 was run?
**A.** 10

**Q.** And the “Proxy for plastic degradation” value (pNP-C8 [1]; pH 4, part of the chain shown)?
**A.** 17

**Q.** And the “Proxy for plastic degradation” value (pNP-C8 [1]; pH 5, part of the chain shown)?
**A.** 62

**Q.** And the “Proxy for plastic degradation” value (pNP-C8 [1]; pH 6, part of the chain shown)?
**A.** 94

**Q.** And the “Proxy for plastic degradation” value (pNP-C8 [1]; pH 7, part of the chain shown)?
**A.** 98

**Q.** What about the “Proxy for plastic degradation” value (pNP-C8 [1]; pH 8, 5 °C, part of the chain shown) of the same protein?
**A.** 100

**Q.** And the “Proxy for plastic degradation” value (pNP-C8 [1]; pH 8, 30 °C, part of the chain shown)?
**A.** 80

**Q.** What about the “Proxy for plastic degradation” value (pNP-C8 [1]; pH 8, 35 °C, part of the chain shown) of the same protein?
**A.** 100

**Q.** And the “Proxy for plastic degradation” value (pNP-C8 [1]; pH 8, part of the chain shown)?
**A.** 100

**Q.** And the “Proxy for plastic degradation” value (pNP-C8 [1]; pH 9, part of the chain shown)?
**A.** 96

**Q.** What about the “Proxy for plastic degradation” value (pNP-C8 [1]; pH 10, part of the chain shown) of the same protein?
**A.** 69

B3: unnamed (protein)
chain: MQVVLGRVRSAGLLAALLALAAWALVWASPSAEAQSNPYQRGPNPTRSALTTDGPFSVATYSVSRLSVSGFGGGVIYYPTGTTLTFGGIAMSPGYTADASSLAWLGRRLASHGFVVIVINTNSRLDFPDSRASQLSAALNYLRTSSPSAVRARLDANRLAVAGHSMGGGATLRISEQIPTLKAGVPLTPWHTDKTFNTPVPQLIVGAEADTVAPVSQHAIPFYQNLPSTTPKVYVELDNATHFAPNSPNAAISVYTISWMKLWVDNDTRYRQFLCNVNDPALSDFRSNNRHCQ
**Q.** Which results are given for B3?
**A.** Proxy for plastic degradation (pNP-C8 [2]; 5 °C): 100%; Proxy for plastic degradation (pNP-C8 [2]; 30 °C): 20%; Proxy for plastic degradation (pNP-C8 [2]; 35 °C): 30%; Proxy for plastic degradation (pNP-C8 [2]; pH 3): 0%; Proxy for plastic degradation (pNP-C8 [2]; pH 4): 20%; Proxy for plastic degradation (pNP-C8 [2]; pH 5): 70%; Proxy for plastic degradation (pNP-C8 [2]; pH 6): 95%; Proxy for plastic degradation (pNP-C8 [2]; pH 7): 100%; Proxy for plastic degradation (pNP-C8 [2]; pH 8): 100%; Proxy for plastic degradation (pNP-C8 [2]; pH 9): 90%; Proxy for plastic degradation (pNP-C8 [2]; pH 10): 15%; Proxy for plastic degradation (pNP-C8 [1]; pH 3): 0; Proxy for plastic degradation (pNP-C8 [1]; pH 4): 17; Proxy for plastic degradation (pNP-C8 [1]; pH 5): 69; Proxy for plastic degradation (pNP-C8 [1]; pH 6): 94; Proxy for plastic degradation (pNP-C8 [1]; pH 7): 100; Proxy for plastic degradation (pNP-C8 [1]; pH 8): 100; Proxy for plastic degradation (pNP-C8 [1]; pH 8, 5 °C): 100; Proxy for plastic degradation (pNP-C8 [1]; pH 8, 30 °C): 21; Proxy for plastic degradation (pNP-C8 [1]; pH 8, 35 °C): 30; Proxy for plastic degradation (pNP-C8 [1]; pH 9): 88; Proxy for plastic degradation (pNP-C8 [1]; pH 10): 11; Proxy for plastic degradation (PET; 30 °C): 0 mM; Proxy for plastic degradation (PET; 40 °C): 0.2 mM; Proxy for plastic degradation (PET; 50 °C): 1.1 mM; Proxy for plastic degradation (PET; 60 °C): 3.8 mM; Proxy for plastic degradation (PET; 70 °C): 6.2 mM; Proxy for plastic degradation (PET; 80 °C): 4.9 mM

B4: unnamed (protein)
chain: QSNPYQRGPNPTRSALTTDGPFSVATYSVSRLSVSGFGGGVIYYPTGTTLTFGGIAMSPGYTADASSLAWLGRRLASHGFVVIVINTNSRLDFPDSRASQLSAALNYLRTSSPSAVRARLDANRLAVAGHSMGGGATLRISEQIPTLKAGVPLTPWHTDKTFNTPVPQLIVGAEADTVAPVSQHAIPFYQNLPSTTPKVYVELDNATHFAPNSPNAAISVYTISWMKLWVDNDTRYRQFLCNVNDPALSDFRSNNRHCQ
**Q.** Which Km (BHET) does the source give for B4 here?
**A.** 16800 µM

**Q.** And the kcat (BHET)?
**A.** 7.3 s⁻¹

**Q.** What about the kcat/Km (BHET) of the same protein?
**A.** 435 M⁻¹ s⁻¹

**Q.** What about the Km (p-NP-C2) of the same protein?
**A.** 1150 µM

**Q.** What about the kcat (p-NP-C2) of the same protein?
**A.** 131 s⁻¹

**Q.** What about the kcat/Km (p-NP-C2) of the same protein?
**A.** 114000 M⁻¹ s⁻¹

**Q.** What about the Km (p-NP-C4) of the same protein?
**A.** 300 µM

**Q.** And the kcat (p-NP-C4)?
**A.** 53.9 s⁻¹

**Q.** What about the kcat/Km (p-NP-C4) of the same protein?
**A.** 180000 M⁻¹ s⁻¹

B5: unnamed (protein)
chain: MNFPRASRLMQAAVLGGLMAVSAAATAQTNPYARGPNPTAASLEASAGPFTVRSFTVSRPSGYGAGTVYYPTNAGGTVGAIAIVPGYTARQSSIKWWGPRLASHGFVVITIDTNSTLDQPSSRSSQQMAALRQVASLNGTSSSPIYGKVDTARMGVMGWSMGGGGSLISAANNPSLKAAAPQAPWDSSTNFSSVTVPTLIFACENDSIAPVNSSALPIYDSMSRNAKQFLEINGGSHSCANSGNSNQALIGKKGVAWMKRFMDNDTRYSTFACENPNSTRVSDFRTANCSLEHHHHHH
**Q.** Which results are given for B5?
**A.** Proxy for plastic degradation (pNP-C8 [2]; 5 °C): 100%; Proxy for plastic degradation (pNP-C8 [2]; 30 °C): 80%; Proxy for plastic degradation (pNP-C8 [2]; 35 °C): 100%; Proxy for plastic degradation (pNP-C8 [2]; pH 3): 10%; Proxy for plastic degradation (pNP-C8 [2]; pH 4): 20%; Proxy for plastic degradation (pNP-C8 [2]; pH 5): 65%; Proxy for plastic degradation (pNP-C8 [2]; pH 6): 95%; Proxy for plastic degradation (pNP-C8 [2]; pH 7): 98%; Proxy for plastic degradation (pNP-C8 [2]; pH 8): 100%; Proxy for plastic degradation (pNP-C8 [2]; pH 9): 95%; Proxy for plastic degradation (pNP-C8 [2]; pH 10): 70%; Proxy for plastic degradation (PET; 30 °C): 1.8 mM; Proxy for plastic degradation (PET; 40 °C): 2.2 mM; Proxy for plastic degradation (PET; 50 °C): 0.8 mM; Proxy for plastic degradation (PET; 60 °C): 0.4 mM; Proxy for plastic degradation (PET; 70 °C): 0.2 mM; Proxy for plastic degradation (PET; 80 °C): 0.1 mM

B6: unnamed (protein)
chain: SNPYQRGPNPTRSALTADGPFSVATYTVSRLSVSGFGGGVIYYPTGTSLTFGGIAMSPGYTADASSLAWLGRRLASHGFVVLVINTNSRFDYPDSRASQLSAALNYLRTSSPSAVRARLDANRLAVAGHSMGGGGTLRIAEQNPSLKAAVPLTPWHTDKTFNTSVPVLIVGAEADTVAPVSQHAIPFYQNLPSTTPKVYVELDNASHFAPNSNNAAISVYTISWMKLWVDNDTRYRQFLCNVNDPALSDFRTNNRHCQ
**Q.** For B6, which “Proxy for plastic degradation” value (pNP-C8 [2]; 5 °C, part of the chain shown) is on record?
**A.** 100%

**Q.** And the “Proxy for plastic degradation” value (pNP-C8 [2]; 30 °C, part of the chain shown)?
**A.** 35%

**Q.** What about the “Proxy for plastic degradation” value (pNP-C8 [2]; 35 °C, part of the chain shown) of the same protein?
**A.** 48%

**Q.** What about the “Proxy for plastic degradation” value (pNP-C8 [2]; pH 3, part of the chain shown) of the same protein?
**A.** 0%

**Q.** And the “Proxy for plastic degradation” value (pNP-C8 [2]; pH 4, part of the chain shown)?
**A.** 20%

**Q.** And the “Proxy for plastic degradation” value (pNP-C8 [2]; pH 5, part of the chain shown)?
**A.** 70%

**Q.** What about the “Proxy for plastic degradation” value (pNP-C8 [2]; pH 6, part of the chain shown) of the same protein?
**A.** 100%

**Q.** And the “Proxy for plastic degradation” value (pNP-C8 [2]; pH 7, part of the chain shown)?
**A.** 100%

**Q.** What about the “Proxy for plastic degradation” value (pNP-C8 [2]; pH 8, part of the chain shown) of the same protein?
**A.** 90%

**Q.** What about the “Proxy for plastic degradation” value (pNP-C8 [2]; pH 9, part of the chain shown) of the same protein?
**A.** 55%

**Q.** And the “Proxy for plastic degradation” value (pNP-C8 [2]; pH 10, part of the chain shown)?
**A.** 0%

**Q.** And the “Proxy for plastic degradation” value (PET; 30 °C, part of the chain shown)?
**A.** 0 mM

**Q.** And the “Proxy for plastic degradation” value (PET; 40 °C, part of the chain shown)?
**A.** 0.4 mM

**Q.** What about the “Proxy for plastic degradation” value (PET; 50 °C, part of the chain shown) of the same protein?
**A.** 1.5 mM

**Q.** And the “Proxy for plastic degradation” value (PET; 60 °C, part of the chain shown)?
**A.** 3.8 mM

**Q.** What about the “Proxy for plastic degradation” value (PET; 70 °C, part of the chain shown) of the same protein?
**A.** 5.8 mM

**Q.** And the “Proxy for plastic degradation” value (PET; 80 °C, part of the chain shown)?
**A.** 4 mM
